Assay results published in patent publication US10188739B2 (Xenetic Biosciences, Inc., priority 2014, dated 2019).
Like-named read-outs stand apart in the source and are kept apart here.

Experiments:
[1] = parameters: species or system CD-1 mice; conditions: mouse, in vivo
Method: (§1) Male CD-1 mice of 8 to 9 weeks of age (18-20 g body weight) were acclimatized for 7 days before being enrolled into the study. Mice were weighed and dosed at 5 μL of dosing material per 20 g of body weight. […] Animals were anesthetized and held with the dorsal end facing down. Dosing materials were administered at a rate of ˜1 μL/10 seconds split equally through both nostrils. Total dosing time ranged from 1.8 to 2.3 minutes. After a nominal 10 minutes post-dose, animals were sacrificed followed by blood collection, perfusion, and tissue collection. The olfactory bulbs were included in the collection of the brain tissues. All tissues were stored at nominal −80° C. until assay. Perfusate contains: 1×PBS pH 7.4, +2.7% w/v BSA+100 U/mL heparin. […] Read plate at Ex/Em 635/675.

[2] = parameters: species or system CD-1 mice; conditions: mouse, in vivo, 10.5 mg/kg
Method: as §1, with “heparin. Lung/Liver/Kidney/Spleen. […] To evaluate recovery and matrix differences between the calibration matrices and study test samples, a spiking recovery experiment was performed (Table 2). […] The RFU correction factor was determined by dividing the response of each analyte spiked into BALB-c lysates (preparation procedures described below) by the response of each analyte spiked into CD-1 homogenate and then extracted. For kidney and liver matrices, there was enough material available to evaluate spiking recovery at two different levels.” for “heparin.”, “635/675 4. […]” for “635/675.”

For “Sialong: polysialyated insulin conjugate by N-terminal (B-chain) aldehyde conjugation using 15 kDa CAO; tested labelled with AF-647 (Sialong^AF647)”, the “Plasma % Dose” value ([1]; 2.1 mg/kg) was 0.0 % Dose, the “Plasma % Dose” value ([1]; 10.5 mg/kg) was 0.01 % Dose and the “Lung % Dose” value [2] was 0.01 % Dose.
